Experiments:
Format in all cases: in vivo
hair follicles [1] = experiment: Hair growth in young mice, topical application to shaved dorsal skin; conditions: 2-month old male ICR mice; for time until hair growth was observed after the treatment: water control 15-17 days
Procedure: To study the effect of lactoferrin in hair growth in young mice, five male ICR (outbred) mice, each 2 months old, were shaved to expose a portion of dorsal skin. For each treated mouse, the exposed portion of dorsal skin was further marked with three areas as illustrated in FIG. 1A to be subsequently administered different treatments. Referring to FIG. 1B, the three marked areas (from left to right) were treated by spreading topically on the exposed skin areas 60 μl of bovine lactoferrin (as an aqueous solution of 100 mg/ml), 60 μl of bovine lactoferrin (of 200 mg/ml) and 60 μl of control vehicle (water), respectively, on a twice daily basis. Observation for hair growth in the marked areas was made daily after the first treatment. […] The hair growth was observed on all five mice administered 200 mg/ml of lactoferrin 2 to 4 days after the treatment.
Hematoxylin and Eosin (H&E) staining was performed to microscopically examine the skin area treated with 200 mg/ml of lactoferrin or the control vehicle for 14 days. […] Thus, the proliferation of the anagen phase hair follicles evidently reflected the hair growth observed in the lactoferrin-treated area.

hair follicles [2] = experiment: Hair growth in 4-month old female mice, topical application to shaved dorsal skin; conditions: 60 μl of 200 mg/ml topically twice daily, after 10 days, not seen with control vehicle
Procedure: The marked areas of the mice were applied by spreading topically on the exposed skin areas 60 μl of aqueous solutions of bovine lactoferrin (200 mg/ml), 60 μl of control vehicle (water), and 60 μl of bovine lactoferricin, obtained as set forth in Example 3, (200 mg/ml) twice daily. Observation for hair growth in the marked areas is made daily after the first treatment. […] The hair growth-promoting effect of lactoferrin or lactoferricin was consistently observed in all tested mice. Although lactoferricin was prepared by the method described in Example 3 above, the present invention should not be limited to use only lactoferricin prepared in such manner. Lactoferricin prepared by other methods would still fall within the scope of the present invention.

hair follicles [3] = experiment: Hair growth in aged mice, topical application to shaved dorsal skin; conditions: 11-month old male ICR mice; for time until hair began to grow on the treated areas after the treatment: water control 21-23 days
Procedure: To further test whether lactoferrin could induce hair growth in aged mice, five male ICR mice, each 11 months old, were similarly shaved and marked with three areas of the exposed dorsal skin as described in Example 1. The marked areas of the mice were applied by spreading topically on the exposed skin areas 60 μl of aqueous solutions of bovine lactoferrin (100 mg/ml), 60 μl of bovine lactoferrin (200 mg/ml) and 60 μl of control vehicle (water) twice a day. Observation for hair growth in the marked areas was made daily after the first treatment. […] In general, the mice treated with 200 mg/ml of lactoferrin began to grow hair on the treated areas 4-6 days after the treatment. […] Spontaneous hair growth in the control area was only observed 21-23 days after the treatment. The hair growth-promoting effect of lactoferrin was consistently observed in all tested mice.
The H&E staining method was performed in a manner similar to Example 1 to examine the skin area treated with 200 mg/ml of lactoferrin or the control vehicle for 14 days. […] Thus, the hair follicles are clearly activated or triggered to re-enter from the telogen-phase to the anagen-phase. The activation of the hair follicles also reflects the hair growth observed in the lactoferrin-treated area.

[4] = 200 mg/ml, 14 days of treatment, H&E histology

B1: lactoferrin (protein, UniProt P24627 20-708, looked up)
Lactotransferrin: APRKNVRWCTISQPEWFKCRRWQWRMKKLGAPSITCVRRAFALECIRAIAEKKADAVTLDGGMVFEAGRDPYKLRPVAAEIYGTKESPQTHYYAVAVVKKGSNFQLDQLQGRKSCHTGLGRSAGWIIPMGILRPYLSWTESLEPLQGAVAKFFSASCVPCIDRQAYPNLCQLCKGEGENQCACSSREPYFGYSGAFKCLQDGAGDVAFVKETTVFENLPEKADRDQYELLCLNNSRAPVDAFKECHLAQVPSHAVVARSVDGKEDLIWKLLSKAQEKFGKNKSRSFQLFGSPPGQRDLLFKDSALGFLRIPSKVDSALYLGSRYLTTLKNLRETAEEVKARYTRVVWCAVGPEEQKKCQQWSQQSGQNVTCATASTTDDCIVLVLKGEADALNLDGGYIYTAGKCGLVPVLAENRKSSKHSSLDCVLRPTEGYLAVAVVKKANEGLTWNSLKDKKSCHTAVDRTAGWNIPMGLIVNQTGSCAFDEFFSQSCAPGADPKSRLCALCAGDDQGLDKCVPNSKEKYYGYTGAFRCLAEDVGDVAFVKNDTVWENTNGESTADWAKNLNREDFRLLCLDGTRKPVTEAQSCHLAVAPNHAVVSRSDRAAHVKQVLLHQQALFGKNGKNCPDKFCLFKSETKNLLFNDNTECLAKLGGRPTYEEYLGTEYVTAIANLKKCSTSPLLEACAFLTR
notes: 78-80 kDa glycoprotein; commercially obtained bovine lactoferrin applied as aqueous solution
number of anagen phase hair follicles relative to control vehicle-treated area (hair follicles [1]; [4]): approximately two-fold | skin thickness versus control vehicle-treated skin (hair follicles [1]; [4]): no significant difference | time until hair growth was observed after the treatment (hair follicles [1]; 60 μl of 100 mg/ml aqueous solution topically twice daily): 3 to 5 days | time until hair growth was observed after the treatment (hair follicles [1]; 60 μl of 200 mg/ml aqueous solution topically twice daily): 2 to 4 days | speed of hair growth versus control vehicle-treated skin (hair follicles [1]; lactoferrin-treated skin (100 and 200 mg/ml), twice daily): more rapid hair growth | hair growth observed in the treated skin area (hair follicles [2]): prominent hair growth | subcutaneous fat and skin thickness versus control area (hair follicles [3]; 200 mg/ml, 14 days, H&E): increased subcutaneous fat and increased thickness of skin | hair follicle phase in histological examination (hair follicles [3]; 200 mg/ml, 14 days, H&E, control area uniform telogen-phase follicles): a large number of anagen-phase (actively growing stage) hair follicles | hair growth observed in the treated skin area (hair follicles [3]; 200 mg/ml, after 11 days of treatment, not seen with control vehicle): prominent hair growth | time until hair began to grow on the treated areas after the treatment (hair follicles [3]; 60 μl of 100 mg/ml topically twice a day): 6 to 8 days | time until hair began to grow on the treated areas after the treatment (hair follicles [3]; 60 μl of 200 mg/ml topically twice a day): 4 to 6 days | inflammation and morphological abnormalities of the treated skin (hair follicles [3]; topical lactoferrin twice a day): no inflammation and morphological abnormalities

From US8178486B2, “Method for promoting hair growth” (Animal Technology Institute Taiwan, priority 2005, dated 2012)
